We go through 1 molecule from article PMC4357707 (Nucleic Acids Research, 2015).

A word on the Kd: it is the equilibrium constant for the complex coming apart.

Common to all, as to assay: EMSA
The target of one data set is T1, HEN1-RHK389,397,477AAA (Arabidopsis thaliana, UniProt Q9C5Q8 1-942, R389A;H397A;K477A).
T1 sequence: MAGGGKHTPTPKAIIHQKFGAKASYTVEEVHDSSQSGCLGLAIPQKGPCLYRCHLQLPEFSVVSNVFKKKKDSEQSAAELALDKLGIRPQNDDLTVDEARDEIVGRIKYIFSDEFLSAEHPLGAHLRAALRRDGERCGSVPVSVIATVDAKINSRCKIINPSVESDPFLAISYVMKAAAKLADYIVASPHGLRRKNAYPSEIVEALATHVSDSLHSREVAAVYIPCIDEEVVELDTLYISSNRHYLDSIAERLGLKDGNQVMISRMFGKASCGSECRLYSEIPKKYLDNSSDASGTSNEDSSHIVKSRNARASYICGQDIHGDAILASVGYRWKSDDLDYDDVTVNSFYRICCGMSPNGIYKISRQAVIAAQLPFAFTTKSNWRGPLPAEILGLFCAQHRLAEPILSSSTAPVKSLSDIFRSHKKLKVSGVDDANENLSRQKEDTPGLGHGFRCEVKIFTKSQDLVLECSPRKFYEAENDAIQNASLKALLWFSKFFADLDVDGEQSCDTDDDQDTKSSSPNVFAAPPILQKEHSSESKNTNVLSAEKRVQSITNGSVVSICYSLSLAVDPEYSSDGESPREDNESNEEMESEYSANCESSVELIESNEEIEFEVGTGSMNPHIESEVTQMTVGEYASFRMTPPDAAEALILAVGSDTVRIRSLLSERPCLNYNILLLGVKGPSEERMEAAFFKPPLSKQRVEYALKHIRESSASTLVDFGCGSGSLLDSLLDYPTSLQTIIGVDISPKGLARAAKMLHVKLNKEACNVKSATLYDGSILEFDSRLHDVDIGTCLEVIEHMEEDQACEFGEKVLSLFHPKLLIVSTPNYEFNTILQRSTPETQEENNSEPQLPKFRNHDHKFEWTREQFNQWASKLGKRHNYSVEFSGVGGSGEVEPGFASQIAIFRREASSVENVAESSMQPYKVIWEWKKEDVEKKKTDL

The target in the next data set is T2, HEN1-KK69-70AA (Arabidopsis thaliana, UniProt Q9C5Q8 1-942, K69A;K70A).
T2 sequence: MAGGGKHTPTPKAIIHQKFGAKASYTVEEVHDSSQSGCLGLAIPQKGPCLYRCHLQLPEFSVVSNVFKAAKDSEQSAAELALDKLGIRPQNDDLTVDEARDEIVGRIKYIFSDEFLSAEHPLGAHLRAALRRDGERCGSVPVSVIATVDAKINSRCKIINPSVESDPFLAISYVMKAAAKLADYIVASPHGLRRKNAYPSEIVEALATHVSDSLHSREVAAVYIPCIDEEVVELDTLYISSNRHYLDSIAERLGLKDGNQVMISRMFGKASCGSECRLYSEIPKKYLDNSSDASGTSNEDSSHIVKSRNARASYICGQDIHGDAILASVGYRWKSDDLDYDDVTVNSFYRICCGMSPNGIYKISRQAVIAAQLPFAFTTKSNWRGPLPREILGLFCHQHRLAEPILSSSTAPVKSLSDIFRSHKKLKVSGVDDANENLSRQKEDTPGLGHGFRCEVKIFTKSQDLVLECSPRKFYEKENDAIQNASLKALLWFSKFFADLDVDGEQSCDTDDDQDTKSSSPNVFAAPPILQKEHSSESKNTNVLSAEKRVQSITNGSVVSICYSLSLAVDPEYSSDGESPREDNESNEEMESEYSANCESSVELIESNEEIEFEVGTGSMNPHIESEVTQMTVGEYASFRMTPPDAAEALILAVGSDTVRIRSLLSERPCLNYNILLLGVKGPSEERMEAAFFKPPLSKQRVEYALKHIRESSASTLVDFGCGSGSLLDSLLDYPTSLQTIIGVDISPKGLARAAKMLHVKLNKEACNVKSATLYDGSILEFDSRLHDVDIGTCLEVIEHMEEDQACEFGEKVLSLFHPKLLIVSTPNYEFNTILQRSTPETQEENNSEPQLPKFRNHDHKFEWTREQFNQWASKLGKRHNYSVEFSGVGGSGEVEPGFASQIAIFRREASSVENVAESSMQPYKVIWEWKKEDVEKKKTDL

A further data set deals with T3, HYL1 (Arabidopsis thaliana, UniProt O04492 1-419).
T3 sequence: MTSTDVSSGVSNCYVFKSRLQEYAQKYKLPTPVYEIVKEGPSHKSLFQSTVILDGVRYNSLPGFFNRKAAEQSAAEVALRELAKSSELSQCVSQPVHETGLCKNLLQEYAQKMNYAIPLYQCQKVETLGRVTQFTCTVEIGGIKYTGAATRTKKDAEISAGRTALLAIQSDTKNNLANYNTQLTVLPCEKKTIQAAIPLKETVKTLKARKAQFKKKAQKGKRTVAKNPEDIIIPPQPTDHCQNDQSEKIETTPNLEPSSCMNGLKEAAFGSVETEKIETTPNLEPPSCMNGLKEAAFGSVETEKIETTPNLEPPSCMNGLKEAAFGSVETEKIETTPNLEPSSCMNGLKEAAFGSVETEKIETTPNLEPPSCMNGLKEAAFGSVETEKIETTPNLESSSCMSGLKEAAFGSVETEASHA

B1: miR173/miR173* (dsRNA)
RNA 1: UUCGCUUGCAGAGAGAAAUCAC
RNA 2: GAUUCUCUGUGUAAGCGAAAG
Molecule B1 gave a dissociation constant Kd with HEN1-RHK389,397,477AAA of 65 ± 12 nM. Further, the binding result with HEN1-KK69-70AA is “no binding”; with HYL1, “binds”.
